This data set is described as follows: yeast display, Sf9 membrane polyspecificity reagent, FACS + sequencing; frameworks hold sequencing errors. In short, it runs like this: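 Galactose induction of a Saccharomyces cerevisiae BJ5465 synthetic nanobody display library ran 36–48 hours. The cells were then stained for 1 hour at 4 °C with 10% biotinylated, detergent-solubilized Sf9 membrane reagent, pulled down on streptavidin microbeads and FACS-sorted into low and high (top ~1%) gates on expression and reagent-binding fluorescence. Labels for polyreactivity follow the gate of origin.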
For the sequence “QVQLVESGGGLVQAGGSLRLSCAASGSIFVNNAMGWYRQAPGKERELVAAISSRSSRTFYADSVKGRFTISRDNAKNTVYLQMNSLKPEDTAVYYCAKPGYLRPSRYDYWGQGTQVTVSS”, the “polyreactivity (PSR sort gate)” value was “high polyreactivity”.

In the case of “QVQLVESGGGLVQAGGSLRLSCAASGSIFVPNAMGWYRQAPGKEREFVAAITRSGGRTYYADSVKGRFTISRDNAKNTVYLQMNSLKPEDTAVYYCAAPYGTYAYDYWGQGTQVTVSS”, the “polyreactivity (PSR sort gate)” value was “high polyreactivity”.

As to “QVQLVESGGGLVQAGGSLRLSCAASGSIFVPYAMGWYRPAPGKERELVAAISWSGGSTYYADSVKGRFTISRDNAKNTVYLHMNSLKPEDTAVYYCAVRFRSYTSYYWIDYEYWGQGTQVTVSS”, the “polyreactivity (PSR sort gate)” value is reported as “high polyreactivity”.

Regarding “QVQLVESGGGLVQAGGSLRLSCAASGSIFVPYAMGWYRQAPGKERELVAAISRRGGRTNYADSVKGRFTISRDNAKNTVYLQMNSLKPEDTAVYYCAKYPIYYGLTRYGYWGHGTQVTVSS”, the “polyreactivity (PSR sort gate)” value is “high polyreactivity”.

Consider “QVQLVESGGGLVQAGGSLRLSCAASGSIFVPYAMGWYRQAPGKERELVAAISSRGGRTYYADSVKGRFTISRDNAKNTVYLQMNSLKPEDNAVYYCNKTAGSHIPRLEYWGQGTQVTVSS”, for which the “polyreactivity (PSR sort gate)” value is given as “low polyreactivity”.

Take “QVQLVESGGGLVQAGGSLRLSCAASGSIFVPYAMGWYRQAPGKERELVAAITYSDGSTYYADSVKGRFTISRDNEKNTVYLQMNSLKPEDTAVYYCATYPQYYFRYDYWGQGTQVTVSS”: the “polyreactivity (PSR sort gate)” value is “high polyreactivity”.

With “QVQLVESGGGLVQAGGSLRLSCAASGSIFVPYTMGWYRQAPGKERELVAAINSSDDSTFYADSVKGRFTISRDNAKNTVYLKMYSLKPEDTAVYYCNATGYARWYTGDYWGQGTQVTVSS”, the “polyreactivity (PSR sort gate)” value is given as “low polyreactivity”.

Regarding “QVQLVESGGGLVQAGGSLRLSCAASGSIFVQNAMGWYRQAPGKETELVAVINSGDSTNYADSVKGRFTISRDNAKNTVYLQMNSLKPEDTEVYYCAVDDVSYYYLRAYNYELSWYGSGLDYWGQGTQVTVSS”, the “polyreactivity (PSR sort gate)” value is “low polyreactivity”.

As for “QVQLVESGGGLVQAGGSLRLSCAASGSIFVQYAMGWYRQAPGKERELVAGITISGGRTYYADSVKGRFTISRDNAKNTVYLLMNSLKPEDTAVYYSNADVTRASSRYNSWGHGTQVTVSS”, the “polyreactivity (PSR sort gate)” value is recorded as “low polyreactivity”.

Take “QVQLVESGGGLVQAGGSLRLSCAASGSIFVQYAMGWYRQAPGKERELVAGITISGGRTYYADSVKGRFTISRDNAKNTVYLQMNSLKPEDTAVYYSNADVTRASSRYNSWGQGTQVTVSS”: the “polyreactivity (PSR sort gate)” value is “low polyreactivity”.

As for “QVQLVESGGGLVQAGGSLRLSCAASGSIFVQYAMGWYRQAPGNERELVAAISNRGGSTYYADSVKGRFTISRDNAKNTVYLQMNSLKPEDTAVYYCAARKYWGYGTRYYYWGQGTQVTVSS”, the “polyreactivity (PSR sort gate)” value was “high polyreactivity”.

Consider “QVQLVESGGGLVQAGGSLRLSCAASGSIFVRYAMGWYRQAPGKEREFVAARTGNTDYADSVKGRFTISRDNAKNTVYLQMNSLKPEDTAVYYCARRPRSGTVSTPYYSLDYWGQGTQVTVSS”, for which the “polyreactivity (PSR sort gate)” value is “low polyreactivity”.

With “QVQLVESGGGLVQAGGSLRLSCAASGSIFVSNAMGWYRQAPGKERELVAAITARDVSTYYADSVKGRFTISRDNAKNTVYLQMNSLKPEDTAVYYCAGNSSTYPSDDSYDYWGQGTQVTVSS”, the “polyreactivity (PSR sort gate)” value is “low polyreactivity”.

Turning to “QVQLVESGGGLVQAGGSLRLSCAASGSIFVSYAMGWYRQAPGKERELVAAITWSGGSTYYADSVKGRFTISRDNAKNTVYLQMKSLKPEDTAVYYCAADEPYPTAYEYWGQGTQVTVSS”, the “polyreactivity (PSR sort gate)” value is on record as “low polyreactivity”.

“QVQLVESGGGLVQAGGSLRLSCAASGSIFVTNAMGWYRPAPGKERELVAAIRWSGDSTYYADSVKGRFTISRDNAKNTVFLQMNSLKPEDTAVYYCAAESFRYIRLNYKYGDYYWGQGTQVTVSS”: the “polyreactivity (PSR sort gate)” value is given as “high polyreactivity”.

Take “QVQLVESGGGLVQAGGSLRLSCAASGSIFVTNAMGWYRQEPGKERELVAAISVSGGSTFYADSVKGRFTISRDNAKNTVYLQMNSLKPEDTAVYYCNTVRSPPGHDYWGQGTQVTVSS”: the “polyreactivity (PSR sort gate)” value is on record as “low polyreactivity”.

Regarding “QVQLVESGGGLVQAGGSLRLSCAASGSIFVTNGMGWYRQAPGKERELVAVISWGGGNTYYADSVKGRFTISRDNAKNTVYLQMNSLKPEDTAVYYCAVDIWGGEGYDSWGQGTQVTVSS”, the “polyreactivity (PSR sort gate)” value was “low polyreactivity”.

“QVQLVESGGGLVQAGGSLRLSCAASGSIFVTNTMGWYRQAPGKERELVAAITYSGGSTYYADSVKGRFTISRDNAKNNVYLQMNSLKPEDTAVYYCAARRARYHVEYYYWGQGTQVTVSS”: the “polyreactivity (PSR sort gate)” value was “high polyreactivity”.

With “QVQLVESGGGLVQAGGSLRLSCAASGSIFVTYAMGWYRQAPGKERELVARITSGGSTYYADSVKGRFTISRDNAKNTVYLQMNRQKPEDTAVYYCAARRWLRYDLDYWGQGTQVTVSS”, the “polyreactivity (PSR sort gate)” value was “low polyreactivity”.

For “QVQLVESGGGLVQAGGSLRLSCAASGSIFVVNAMGWYRPAPGKERELVAAISDSGDRTYYADSVKGRFTISRDNAKNTVYLLMNSLKPEDTAVYYCNTRYSPGYQGTEVDYWGQGTQVTVSS”, the “polyreactivity (PSR sort gate)” value is given as “low polyreactivity”.

“QVQLVESGGGLVQAGGSLRLSCAASGSIFVVNAMGWYRQAPGKERELVAAISDSGDRTYYADSVKGRFTISRDNAKNTVYLQMNSLKPEDTAVYYCAADSIQTTAIYDYWGQGTQVTVSS”: the “polyreactivity (PSR sort gate)” value is listed as “low polyreactivity”.

For the sequence “QVQLVESGGGLVQAGGSLRLSCAASGSIFVVNARGWYRQAPGKERELVAAITKNGGRTYYADSVKGRFTISRDNAKNTVYLQMNSLKPEDTAVYYCNTVKGHGGYYGYDYWGQGTQVSVSS”, the “polyreactivity (PSR sort gate)” value was “high polyreactivity”.

As for “QVQLVESGGGLVQAGGSLRLSCAASGSIFVWNDMGWYRQAPGKERELVASIRSGVSTYYADSVKGRFTISRDNAKNTVYLQMNSLKPEDTAVYYCAKKGPIHYIYDSWGQGTQVTVSS”, the “polyreactivity (PSR sort gate)” value is “low polyreactivity”.

For “QVQLVESGGGLVQAGGSLRLSCAASGSIFVYNAKGWYRQAPGKERELVAAISSSGSSTYYADSVKGRFTISRDNAKNTFYLQMNSLKPEDTAVYYCAADPARYGYWNSYDYWGQGTQVTVSS”, the “polyreactivity (PSR sort gate)” value is listed as “high polyreactivity”.

Turning to “QVQLVESGGGLVQAGGSLRLSCAASGSIFVYNAMGWYRQAPGKEREFVAGITFIGGSTYYADSVKGRFTISRDNAKNTVYLKMNSLKPEDTAVYYCNADVAPGIFYGYDSWGQGSQVTVSS”, the “polyreactivity (PSR sort gate)” value is “low polyreactivity”.

Turning to “QVQLVESGGGLVQAGGSLRLSCAASGSIFVYNAMGWYRQAPGKERELVAAIDTVGSTNYADSVKGRFTISRDNAKNTVYLQMNSLKPEDTAVYYCAVVTPYWSFYEQVIPSNYWGQGTQVTVSS”, the “polyreactivity (PSR sort gate)” value is “low polyreactivity”.

Regarding “QVQLVESGGGLVQAGGSLRLSCAASGSIFVYNDMGWYRQAPGKERELVAGIDWSGDRTYADSVKGRFTISRDNAKNTVYLQLNSLKPEDTAVYYCNADDWRWDEIIPYAVDYWGQGTQVTVSS”, the “polyreactivity (PSR sort gate)” value is “low polyreactivity”.

“QVQLVESGGGLVQAGGSLRLSCAASGSIFVYNDMGWYRQAPGKERELVAGIDWSGDRTYADSVKGRFTISRDNAKNTVYLQMNSLKPEDTAVYYCNADEWRWDEIIPYAVDYWGQGTQVTVSS”: the “polyreactivity (PSR sort gate)” value was “low polyreactivity”.

For the sequence “QVQLVESGGGLVQAGGSLRLSCAASGSIFVYYAMGWYRQAPGKERELVASISRGGTSTYYADSVKGRFTISRDNAKNTVYLQMNSLKPEDTAVYYCAAQPYRTGTYDYWGQGTQVTVSS”, the “polyreactivity (PSR sort gate)” value was “low polyreactivity”.

Take “QVQLVESGGGLVQAGGSLRLSCAASGSIFVYYAMGWYRQAPGNERELVAAINNGGSTTYADSVKGRFTISRDNAKNTVYLQMNSLKPEDTAVYYCAADLEPRTNAPGLPTPDGYYWGQGTQVTVSS”: the “polyreactivity (PSR sort gate)” value is on record as “low polyreactivity”.

On to “QVQLVESGGGLVQAGGSLRLSCAASGSIFVYYDMGWYRQAPGKERELVAAISTTCGRTYYADSVKGRFTISRDNAKNTVYLQMNSLKPEATAVYYCAARYTIPYKRYDYWGQGPQVTVSS”, for which the “polyreactivity (PSR sort gate)” value is on record as “high polyreactivity”.

Turning to “QVQLVESGGGLVQAGGSLRLSCAASGSIFWDYAMGWYRQAPGKERELVAAISGSGTSTYYADSVKGRFTISRDNAKNTVYLQMNSLKPEDTAVYYCAARIWTGRGRKLGNGYDYWGQGTQVTVSS”, the “polyreactivity (PSR sort gate)” value was “low polyreactivity”.

On to “QVQLVESGGGLVQAGGSLRLSCAASGSIFWDYAMGWYRQAPGKERELVAAISSNGGNTYYADSVKGRFTISRDNAKNTVYLQMNSLKPEDTAVYYCAARAKRRHGYWGQGTQVTVSS”, for which the “polyreactivity (PSR sort gate)” value is “high polyreactivity”.

Regarding “QVQLVESGGGLVQAGGSLRLSCAASGSIFWGYAMGWYRQAPGKERELVATITYGGDSTYYADSVKGRFTISRDNAKNTVYLQMNSLKPEDTAVYYCNVGVEPYDYDYWGQGTQVTVSS”, the “polyreactivity (PSR sort gate)” value was “low polyreactivity”.

Consider “QVQLVESGGGLVQAGGSLRLSCAASGSIFWGYDMGWYRQAPGKERELVARISYSGGSTSYADSVKGRFTISRDNAKNTVYLQMNSLKPEDTAVYYCAADEGGFWWTYPYDSWGQGTQVTVSS”, for which the “polyreactivity (PSR sort gate)” value is given as “low polyreactivity”.

As to “QVQLVESGGGLVQAGGSLRLSCAASGSIFWLYAMGWYRQAPGKEREFVAAITTSGSSTRYADSVKGRFTISRDNAKNTVYLQMNSLKPEDTAVYYCAARNRTFFQPTYYYWGQGTQVTVSS”, the “polyreactivity (PSR sort gate)” value is “high polyreactivity”.

Consider “QVQLVESGGGLVQAGGSLRLSCAASGSIFWNYAMGWYRQAPGKEREFVASISRSGGSTYYADSVKGRFTISRDNAKNTVYLQMNSLKPEDTAVYYCAARGVKISYNYWGQGTQVTVSS”, for which the “polyreactivity (PSR sort gate)” value is listed as “high polyreactivity”.

As for “QVQLVESGGGLVQAGGSLRLSCAASGSIFWPNAMGWYRQAPGKERELVAAISWGTGSTYYADSVKGRFTISRDNAKNTVYLQMNSLKPEDTAVYYCAADGAYLDPYYDYWGQGTQVTVSS”, the “polyreactivity (PSR sort gate)” value was “low polyreactivity”.

Consider “QVQLVESGGGLVQAGGSLRLSCAASGSIFWPNTMGWYRQAPGKERELVAGISFGGGSTYYADSVKGRFTISRDNAKNTVYLQMNSLKPEDTEVYYCNAPGPVISRRTDSYWYGWYDYWGQGTQVTVSS”, for which the “polyreactivity (PSR sort gate)” value is on record as “low polyreactivity”.

As to “QVQLVESGGGLVQAGGSLRLSCAASGSIFWPYAMGWYRQAPGKERELVAGISSGGSTYYADSVKGRFTISRDNAKNTVYLQMNSLKPEDTAVYYCAARWQWLNGYYYWGQGTQVTVSS”, the “polyreactivity (PSR sort gate)” value is recorded as “high polyreactivity”.

(Values after the nanobody polyreactivity screen of Harvey et al. (2022).)
